{"source": "patent US11149086B2", "about": "“KV1.3 binding immunoglobulins” (Ablynx N.V., priority 2014, dated 2021)", "molecules": {"B1": {"name": "A019400003: monovalent anti-Kv1.3 Nanobody, family 1 (protein)", "VHH": "EVQLVESGGGLVQAGGSLSLSCTASGGTFRNFGMGWFRQAQGKEREFVAAISRTGGHTYYQDSVKGRFTISKDNAKNILSLQMNSLKPEDTAVYYCAARFRFGDGTYYYQRAFYDFWGQGTQVTVSS", "modifications": "Nanobody sequence"}}, "key": {"[1]": {"system": "CCR7−CD45RA− T cells", "type": "cell-based, human", "excerpt": "The purified anti-Kv1.3 Nanobodies were characterized in a T Cell-activation assay. Human T Cells were first collected from Buffy Coat blood (from healthy volunteers, Bloodbank Gent) using RosetteSep (StemCell Technologies, #15061) followed by an enrichment on Ficoll-Paque™ PLUS (GE Healthcare #17-1440-03). CCR7−CD45RA− T cells were isolated through negative selection using biotinylated antibodies against CD45RA (BD Bioscience #624008) and CCR7 (BD Bioscence #624009) in addition to the Dynabeads Biotin Binder (Invitrogen #110.47). The purity of the population was afterwards checked with anti-CD3 (eBioscience #12-0037-73); anti-CD8 (BD Bioscience #345775); anti-CD4 (BD Bioscience #345771); anti-CD45RO (BD Bioscience #555493); anti-CD45RA (BD Bioscience #550855); anti-rat IgG (Jackson ImmunoResearch Laboratories #112-116-143); anti-CD19 (BD Bioscience #555413) and anti-Human CCR7 (R&D Systems #MAB197) labeled antibodies in flow cytometric assay.\nIsolated CCR7^−CD45RA^− T Cells were then stimulated on anti-CD3 (eBioscience 16-0037-85; 540 ng/ml) coated 96-well plates at a concentration of 200 000 cells/well in absence or presence of dilution series of anti-Kv1.3 antibodies and ShK positive control (Smartox, #08SHK001). After 72 h, IFN-gamma production was measured with anti-human IFNγ antibody capture in ELISA (BD Bioscence #551221) combined with biotinylated anti-human IFNγ (BD Bioscience, #554550) and streptavidin-HRP (Dakocytomation #P0397) as detection (FIG. 11A-11B).\nIn addition, also CD25 expression was measured in flow cytometry, using an anti-CD25 antibody (BD Pharmingen, cat 557138) (FIG. 11C-11D). […]"}, "[2]": {"biological_target": "T1, human Kv1.3 (Homo sapiens, UniProt P22001)", "T1 construct": "cell lines stably expressing the full length human Kv1.3 channel", "T1 sequence (P22001 whole entry)": "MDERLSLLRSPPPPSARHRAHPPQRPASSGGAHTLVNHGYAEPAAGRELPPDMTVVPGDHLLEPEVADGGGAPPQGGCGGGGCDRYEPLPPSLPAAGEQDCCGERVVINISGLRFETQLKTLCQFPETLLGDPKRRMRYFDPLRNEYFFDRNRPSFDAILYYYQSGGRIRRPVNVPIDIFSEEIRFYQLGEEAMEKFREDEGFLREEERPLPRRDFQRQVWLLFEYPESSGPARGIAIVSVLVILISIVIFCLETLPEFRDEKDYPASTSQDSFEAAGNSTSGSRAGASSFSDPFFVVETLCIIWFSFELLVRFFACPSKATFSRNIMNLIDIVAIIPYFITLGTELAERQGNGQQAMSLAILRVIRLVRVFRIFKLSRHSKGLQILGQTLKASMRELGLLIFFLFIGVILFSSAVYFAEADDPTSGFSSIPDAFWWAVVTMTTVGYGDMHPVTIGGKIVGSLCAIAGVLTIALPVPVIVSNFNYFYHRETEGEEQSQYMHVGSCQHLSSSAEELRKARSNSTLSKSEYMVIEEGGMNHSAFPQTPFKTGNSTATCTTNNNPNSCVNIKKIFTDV", "test": "FACS competition with FAM-labeled ShK on HEK293H human Kv1.3 cells", "type": "binding", "method": "To evaluate the competition between the toxin ShK and the Nanobodies for binding to Kv1.3, a FACS competition experiment was performed using HEK293H cells overexpressing human Kv1.3 and the parental HEK293H cells as background cell line. As detection reagent, FAM-labeled ShK was used (6-FAM-AEEAc-Stichodactyla helianthus Neurotoxin (ShK) (Bachem, H-6088, 1046522, PRT00000366/01/01)). To setup the assay, first a titration series of the labeled Shk-FAM was performed on the HEK293H Kv1.3 cells in order to determine the EC50 value for binding.\nIn brief, a dilution series of ShK or Nanobody were added together with the labeled toxin to 200 000 cells in a 96-well plate. After 90 minutes incubation at 4° C., cells were washed three times before read out was performed on a FACS Canto (Becton Dickinson). First a gate was set on the intact cells as determined from the scatter profile. Next, dead cells were gated out by their fluorescence profile from the TOPRO stain (5 nM, Molecular probes, T3605). […] The percentage of inhibition for Nanobodies blocking the interaction of ShK to human Kv1.3 is depicted in Table B-11."}}}
{"molecule": "B1", "values": [{"measurement": "inhibition of T-cell stimulation (IFNγ, CD25), in words", "setting": "[1]; anti-CD3 stimulation", "result": "did not block"}, {"measurement": "IC50 (in M) CD25 read out", "setting": "[1]; monovalent Nanobodies, plate bound anti-CD3", "result": "no effect"}, {"measurement": "IC50 (in M) IFNγ read out", "setting": "[1]; monovalent Nanobodies, plate bound anti-CD3, 72 h", "result": "no effect"}, {"measurement": "blocking of FAM labeled ShK binding to Kv1.3, in words", "setting": "[2]; 70 nM ShK-FAM", "result": "only partially blocked"}, {"measurement": "% inhibition of ShK-Fam binding", "setting": "[2]; 70 nM ShK-Fam (100x EC50), HEK 293H hu Kv1.3 cells", "result": 87.13, "unit": "%"}]}
